Laboratory results as given in patent publication US20100021474.

Biological target: Kunitz domain inhibitor KD1 derived from hepatocyte growth factor activator inhibitor-1B (HAI-1B) (UniProt O43278)
Sequence (O43278 246-303): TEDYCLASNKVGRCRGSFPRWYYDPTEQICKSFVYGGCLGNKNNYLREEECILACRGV

Chain of soluble form of HEPSIN comprising the entire extracellular domain (human HEPSIN Arg45-Leu417, His-tagged) (chain, as listed by the source): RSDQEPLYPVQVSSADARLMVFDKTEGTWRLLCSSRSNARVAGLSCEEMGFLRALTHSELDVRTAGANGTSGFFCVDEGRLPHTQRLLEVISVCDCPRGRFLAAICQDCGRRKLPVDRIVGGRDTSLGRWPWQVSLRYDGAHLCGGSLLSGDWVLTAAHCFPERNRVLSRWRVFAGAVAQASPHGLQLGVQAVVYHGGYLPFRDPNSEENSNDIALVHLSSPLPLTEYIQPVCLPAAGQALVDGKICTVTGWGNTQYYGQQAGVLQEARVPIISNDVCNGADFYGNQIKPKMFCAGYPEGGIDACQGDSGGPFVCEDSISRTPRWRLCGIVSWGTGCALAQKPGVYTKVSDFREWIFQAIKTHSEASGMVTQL

“soluble form of HEPSIN comprising the entire extracellular domain (human HEPSIN Arg45-Leu417, His-tagged)” was tested, and the “HEPSIN activity in a chromogenic substrate assay with the para-nitroanilide substrate S2366” value was “completely inhibited HEPSIN activity at a concentration of 50 nM”.
